Reference: US20190284241A1 (Affibody, published 2019)
Where two headings read alike, the source gives them in different places. Each block holds one molecule with its values, some of them ahead of it.

What was measured:
[1] = target: human FcRn-eGFP on transduced HeLa cells (human) (UniProt P55899); test: flow cytometry, hFcRn-eGFP HeLa cells, blocks Alexa647-hIgG, pH 6.0
[2] = target: human FcRn-eGFP on transduced HeLa cells (human) (UniProt P55899); test: as above; remark: listed apart in the source
[3] = target: T1, human FcRn (Biorbyt, cat. no. orb84388) (human, UniProt P55899 24-297; P61769 21-119, limits assumed); test: ELISA screening; periplasm with the ABD moiety only captured on anti-ABD antibody, biotinylated hFcRn at 2 nM
T1 construct: Bought protein; also called hFcRn
Description: After washing as described above, 50 μl ImmunoPure TMB substrate (Thermo Scientific, cat. no. 34021) was added to the wells and the plates were treated according to the manufacturer's recommendations.

[4] = target: T2, human FcRn (Biorbyt, cat. no. orb84388) (human, UniProt P55899 24-297; P61769 21-119, limits assumed); test: SPR Biacore, hFcRn immobilised; sample before the stability test (0)
T2 construct: Bought soluble protein; not biotinylated on Biacore chips and ELISA coat; also called hFcRn
Description: (§1) The His₆-tagged Z variants were further assessed in terms of preserved binding capacity to FcRn after introduction of alterations in the scaffold, as well as after having been subjected to the stability test, i.e. incubated at 37° C. for 2 weeks. Comparative kinetic constants (kₒₙ and koff) and affinities (KD) were determined using a Biacore 2000 instrument. The target protein human FcRn (Biorbyt, cat. no. orb 84388) was immobilized on the carboxylated dextran layer surface of a CM5 chip (GE Healthcare). The immobilization was performed using amine coupling chemistry according to the manufacturer's protocol and using HBS-EP as running buffer. One flow cell surface on the chip was activated and deactivated for use as blank during analyte injections. The immobilization level of hFcRn on the surface was approximately 750 RU. […] Regeneration by three pulses of HBS-EP followed by 10 min equilibration in running buffer was applied after each analyte injection. Kinetic constants were calculated from the sensorgrams using the Langmuir 1:1 model of the BiaEvaluation software 4.1 (GE Healthcare). Curves of the blank surface were subtracted from the curves of the ligand surfaces and the data from the buffer cycles were subtracted from the data of the test-sample cycles to correct for any drift in signal.

[5] = target: T2, human FcRn (Biorbyt, cat. no. orb84388); test: SPR Biacore, hFcRn immobilised; sample after 2 weeks at 37 °C (2 w)
Description: as §1

Molecule: Intravenous immunoglobulin (IVIg; Octagam, Octapharma) (antibody)
IC50 [1]: 170 nM
IC50 [2]: 150 nM

Molecule: LAEAKVLANRELDKYGVSDYYKNLINNAKTVEGVKALIDEILAALP (other, Streptococcus strain G148, UniProt P19909 254-299, looked up, domain: GA3) [ABD moiety only (periplasm, negative control)]
binding result [3]: no binding (tested: 2 nM)

Continued, values first:

IC50 [1]: 120 nM
Molecule: Subcutaneous immunoglobulin (SCIg; Gammanorm, Octapharma) (antibody)

Kd [4]: 5.5 nM
koff [4]: 0.01 s⁻¹
kon [4]: 1.82e+06 M⁻¹ s⁻¹
Kd [5]: 6.3 nM
koff [5]: 0.00809 s⁻¹
kon [5]: 1.28e+06 M⁻¹ s⁻¹
B1: His6-tagged Z17348 (designed binder)
chain: MGSSHHHHHHLQAEAKYAKEQDAAAHEIRWLPNLTFDQRVAFIHKLARQPEQSSELLSEAKKLSESQAPK
